Measurements reported in the supplement of paper PMC10126150.
± gives the standard deviation of the averaged measurements.

Test system: ATP
Assay: switch fluorescence ratio, 500 uM ATP over buffer (Cy3 cluster intensity, sum of 5 cycles each) (fold (ratio)); higher = stronger signal-on switching upon ATP binding; sequences stand for … in TCGTCGGCAGCGTCAGATGTGTATAAGAGACAGTTTTTTTTTTTTTTTTTTTTTTTTT…TC
Conditions: aptamer strand: ATP DNA aptamer (quencher-CACCTGGGGGAGTATTGCGGAGGAAGG + anchor), 100 nM annealed; ATP concentration: 500 uM
In short: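 Five buffer/ATP imaging cycles were run on Cy3-labelled switching-strand clusters on a modified Illumina MiSeq flow-cell, with NaOH stripping and re-annealing between cycles. In each cycle, clusters annealed to 100 nM quencher-labelled ATP aptamer were imaged in selection buffer, then after 15 min with 500 uM ATP at 22 °C. Per cluster, the fluorescence ratio is summed target-cycle over summed buffer-cycle Cy3 intensity, averaged per switch-domain sequence. Only clusters within 100-1000 RFU were kept.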
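Further: ATP exposure 15 min at 22 °C before imaging.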

Row | Sequence | switch fluorescence ratio
1 | GACACTTGGA | 1.03 ± 0.014
2 | GACAGAGGGC | 0.96 ± 0.062
3 | GACAGATGGT | 1.01 ± 0.019
4 | GACAGGGGAG | 1 ± 0.018
5 | GACAGTCAAA | 1.01 ± 0.04
6 | GACATAGCGG | 1.07 ± 0.03
7 | GACATATGGG | 0.967 ± 0.035
8 | GACATGGGAT | 1.01 ± 0.037
9 | GACATTAAGG | 1.01 ± 0.084
10 | GACATTTCGT | 0.992 ± 0.019
11 | GACCATACGC | 1.42 ± 0.055
12 | GACCATTGGA | 1.006 ± 0.0011
13 | GACCATTTGT | 0.995 ± 0.033
14 | GACCATTTTT | 1.02 ± 0.038
15 | GACCCGCTTG | 1.06 ± 0.013
16 | GACCCGGGTG | 2.98 ± 0.18
17 | GACCCGGGTT | 1.11 ± 0.15
18 | GACCCGTCCA | 0.995 ± 0.024
19 | GACCCTAAC | 1.14 ± 0.016
20 | GACCCTGGGT | 1.06 ± 0.033
21 | GACCGAAAGT | 0.998 ± 0.01
22 | GACCGAGCGT | 1.1 ± 0.06
23 | GACCGGCGTC | 1.02 ± 0.017
24 | GACCGGGCCC | 1.01 ± 0.015
25 | GACGAAAATC | 1.2 ± 0.032

Row | Sequence | switch fluorescence ratio
26 | GACGAAGGT | 1.01 ± 0.052
27 | GACGAATCAG | 0.97 ± 0.018
28 | GACGACGGGT | 1.27 ± 0.041
29 | GACGACGTGT | 1.43 ± 0.35
30 | GACGACTTGA | 1.02 ± 0.042
31 | GACGCACGAA | 1.58 ± 0.057
32 | GACGCGGTTC | 5.13 ± 0.77
33 | GACGCTAGGG | 1 ± 0.052
34 | GACGGAGACC | 1.11 ± 0.027
35 | GACGGAGTTG | 1.01 ± 0.026
36 | GACGGATGTG | 0.986 ± 0.032
37 | GACGGCGTTC | 1.008 ± 0.0058
38 | GACGGCTGCT | 1.01 ± 0.0042
39 | GACGGCTGGA | 1.007 ± 0.0029
40 | GACGGCTGTA | 0.991 ± 0.015
41 | GACGGGAAAA | 1.07 ± 0.14
42 | GACGGGAGCT | 1.06 ± 0.021
43 | GACGGGCAAG | 1.02 ± 0.053
44 | GACGGGCCGT | 1.01 ± 0.021
45 | GACGGGCGGA | 1.019 ± 0.0024
46 | GACGGGGAGG | 0.9995 ± 0.0092
47 | GACGGGGCGT | 0.989 ± 0.013
48 | GACGGGGTAG | 1 ± 0.048
49 | GACGGTCATG | 0.995 ± 0.018
50 | GACGGTGCAT | 1.33 ± 0.084

Row | Sequence | switch fluorescence ratio
51 | GACGGTTGAG | 1.025 ± 0.0057
52 | GACGGTTTAC | 1.65 ± 0.023
53 | GACGTAACCT | 1.5 ± 0.032
54 | GACGTAGT | 1.01 ± 0.022
55 | GACGTATATT | 1.08 ± 0.0067
56 | GACGTGAAGG | 1.026 ± 0.0055
57 | GACGTGAGGA | 0.989 ± 0.024
58 | GACGTGAGGT | 1.017 ± 0.0012
59 | GACGTGTCAA | 1.03 ± 0.019
60 | GACGTGTGAG | 0.993 ± 0.034
61 | GACGTTTAAG | 0.977 ± 0.029
62 | GACTACGGTT | 1.006 ± 0.0095
63 | GACTATTATG | 1 ± 0.019
64 | GACTCGGGCG | 1.014 ± 0.0082
65 | GACTGCGGAG | 1 ± 0.026
66 | GACTGCTTGG | 0.9518 ± 0.0063
67 | GACTGGAAGG | 1.01 ± 0.011
68 | GACTGGATTG | 0.996 ± 0.06
69 | GACTGGGCAG | 1.01 ± 0.011
70 | GACTGGGGAC | 1.01 ± 0.012
71 | GACTGGTCGA | 0.996 ± 0.053
72 | GACTGTCGAG | 0.991 ± 0.027
73 | GACTTATTTT | 0.9849 ± 0.0014
74 | GACTTGAGTT | 0.9971 ± 0.0091
75 | GACTTGTGGG | 1.02 ± 0.084

Row | Sequence | switch fluorescence ratio
76 | GACTTTGGTG | 1.01 ± 0.026
77 | GACTTTTCCT | 1.3 ± 0.41
78 | GAGAAATACG | 1.47 ± 0.08
79 | GAGAAATGCG | 1.03 ± 0.012
80 | GAGAACGGTT | 1.03 ± 0.052
81 | GAGAAGCAGT | 1 ± 0.024
82 | GAGAAGGAGG | 1.01 ± 0.012
83 | GAGAAGGGAT | 0.999 ± 0.022
84 | GAGAATGAGG | 0.962 ± 0.0093
85 | GAGAATTATG | 0.9933 ± 0.0023
86 | GAGAATTGAA | 0.99 ± 0.014
87 | GAGAATTTGT | 0.978 ± 0.033
88 | GAGACAGCGC | 1.02 ± 0.062
89 | GAGACAGGAT | 1.01 ± 0.04
90 | GAGACATCGT | 0.986 ± 0.018
91 | GAGACGGAAT | 1.06 ± 0.025
92 | GAGACGGGGG | 1.02 ± 0.033
93 | GAGACGTTGG | 0.985 ± 0.014
94 | GAGACTTGGG | 1.03 ± 0.029
95 | GAGAGAGGGT | 0.997 ± 0.014
96 | GAGAGAGTGA | 0.963 ± 0.025
97 | GAGAGATGTT | 0.999 ± 0.021
98 | GAGAGATTTT | 0.997 ± 0.034
99 | GAGAGCAAGT | 1.14 ± 0.034
100 | GAGAGCGGTG | 0.9953 ± 0.0075

Row | Sequence | switch fluorescence ratio
101 | GAGAGGAAAT | 1.004 ± 0.0059
102 | GAGAGGATGG | 0.984 ± 0.042
103 | GAGAGGCACA | 1.02 ± 0.051
104 | GAGAGGGGGT | 0.998 ± 0.05
105 | GAGAGGGTAG | 0.9801 ± 0.0095
106 | GAGAGGGTCA | 0.98 ± 0.025
107 | GAGAGGTTTT | 1 ± 0.029
108 | GAGAGTATAA | 0.99 ± 0.022
109 | GAGAGTATGG | 0.982 ± 0.049
110 | GAGAGTGACA | 1.01 ± 0.062
111 | GAGAGTGGCA | 0.988 ± 0.031
112 | GAGAGTTGTG | 0.988 ± 0.034
113 | GAGATAGGTT | 1.03 ± 0.073
114 | GAGATATATG | 0.983 ± 0.052
115 | GAGATCTAGT | 1.01 ± 0.019
116 | GAGATGAAAC | 0.976 ± 0.011
117 | GAGATGTGGT | 0.985 ± 0.031
118 | GAGATGTTTT | 0.988 ± 0.043
119 | GAGATTATGG | 0.966 ± 0.022
120 | GAGATTGAGG | 1.02 ± 0.038
121 | GAGATTGGAA | 1.002 ± 0.0025
122 | GAGATTTAGT | 0.973 ± 0.049
123 | GAGCAAAAGG | 1.004 ± 0.0058
124 | GAGCAAGGTT | 1.24 ± 0.2
125 | GAGCAGCATT | 1.05 ± 0.014

Row | Sequence | switch fluorescence ratio
126 | GAGCCAGATT | 1.0095 ± 0.00059
127 | GAGCCAGGCA | 0.974 ± 0.042
128 | GAGCCCGCAG | 1.6 ± 0.038
129 | GAGCCCTTAT | 0.9812 ± 0.0078
130 | GAGCCTTATG | 0.994 ± 0.033
131 | GAGCGAATAG | 1.46 ± 0.055
132 | GAGCGGGTAC | 1.41 ± 0.03
133 | GAGCGGGTTG | 0.9835 ± 0.0056
134 | GAGCGTAAGT | 0.958 ± 0.03
135 | GAGCTAACGG | 1.011 ± 0.0073
136 | GAGCTAAGCT | 0.981 ± 0.018
137 | GAGCTAAGGA | 0.981 ± 0.029
138 | GAGCTGGAGG | 1 ± 0.017
139 | GAGCTTCTAG | 1.03 ± 0.015
140 | GAGCTTGCTG | 0.9992 ± 0.0083
141 | GAGGAACCGG | 1.05 ± 0.021
142 | GAGGAAGGGG | 1 ± 0.016
143 | GAGGAATCGA | 1.04 ± 0.065
144 | GAGGAATTTA | 1.02 ± 0.028
145 | GAGGAGCGTT | 0.9804 ± 0.007
146 | GAGGAGGATG | 0.987 ± 0.013
147 | GAGGAGGGAC | 0.989 ± 0.05
148 | GAGGAGGGTA | 0.966 ± 0.086
149 | GAGGAGTAGG | 1.08 ± 0.036
150 | GAGGAGTGGT | 0.984 ± 0.015

Row | Sequence | switch fluorescence ratio
151 | GAGGATTTAA | 1 ± 0.03
152 | GAGGCAAGG | 1.341 ± 0.0038
153 | GAGGCAGTTA | 1.11 ± 0.046
154 | GAGGCATTGC | 1.65 ± 0.24
155 | GAGGCCCATT | 1 ± 0.043
156 | GAGGCCGATT | 1.02 ± 0.011
157 | GAGGCGACGT | 0.963 ± 0.027
158 | GAGGCGGAGG | 1 ± 0.028
159 | GAGGCGGCAT | 1.04 ± 0.0066
160 | GAGGCGGCGG | 1.067 ± 0.0051
161 | GAGGCGGTGG | 1.009 ± 0.005
162 | GAGGCTGGGA | 0.988 ± 0.032
163 | GAGGCTGGGC | 0.973 ± 0.053
164 | GAGGCTTCTA | 1.02 ± 0.036
165 | GAGGGAAGAG | 1.01 ± 0.021
166 | GAGGGAAGGG | 0.994 ± 0.011
167 | GAGGGAGGGA | 1.03 ± 0.059
168 | GAGGGAGTCG | 1.01 ± 0.022
169 | GAGGGAGTTT | 0.987 ± 0.025
170 | GAGGGCGCTG | 0.973 ± 0.011
171 | GAGGGCTAGG | 0.997 ± 0.023
172 | GAGGGCTTGG | 1.05 ± 0.016
173 | GAGGGGAACC | 0.992 ± 0.032
174 | GAGGGGAGCG | 0.969 ± 0.043
175 | GAGGGGATAG | 1.03 ± 0.046

Row | Sequence | switch fluorescence ratio
176 | GAGGGGATGT | 0.978 ± 0.026
177 | GAGGGGCCGA | 0.973 ± 0.016
178 | GAGGGGCGCG | 0.997 ± 0.065
179 | GAGGGGCTTT | 0.982 ± 0.018
180 | GAGGGGGCAC | 1.03 ± 0.042
181 | GAGGGGGCGC | 1.02 ± 0.031
182 | GAGGGGGCGG | 0.999 ± 0.025
183 | GAGGGGGCGT | 1.01 ± 0.04
184 | GAGGGGGCTA | 1.02 ± 0.029
185 | GAGGGGGGAC | 1.02 ± 0.032
186 | GAGGGGGGCA | 0.977 ± 0.03
187 | GAGGGGGGGC | 1.01 ± 0.07
188 | GAGGGGTCCA | 0.974 ± 0.021
189 | GAGGGGTGCG | 1.01 ± 0.025
190 | GAGGGGTTGG | 0.964 ± 0.033
191 | GAGGGGTTGT | 1.03 ± 0.013
192 | GAGGGTACGG | 1.037 ± 0.0092
193 | GAGGGTATCG | 0.984 ± 0.039
194 | GAGGGTCAAA | 1.004 ± 0.01
195 | GAGGGTCATC | 0.935 ± 0.056
196 | GAGGGTGAGT | 0.9809 ± 0.0054
197 | GAGGGTGCGG | 1.01 ± 0.027
198 | GAGGGTGGGC | 1.03 ± 0.09
199 | GAGGGTGTAG | 0.988 ± 0.018
200 | GAGGGTGTGG | 1.02 ± 0.022
